The record followed here is paper PMC8266576, “TnpAREP and REP sequences dissemination in bacterial genomes: REP recognition determinants”.

The target of this data set is T1, TnpAREP Ec (TnpAEc-His6) (Escherichia coli, UniProt Q47152 1-165).
T1 sequence: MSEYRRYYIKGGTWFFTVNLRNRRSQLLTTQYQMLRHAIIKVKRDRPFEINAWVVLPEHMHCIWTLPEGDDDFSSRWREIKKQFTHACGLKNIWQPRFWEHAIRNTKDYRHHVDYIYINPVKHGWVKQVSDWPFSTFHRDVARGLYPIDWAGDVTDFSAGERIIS
Description: EMSA; 2 and 4 uM protein, no divalent metal; EMSA: 12.5 mM Tris pH 7.5, 120 mM NaCl, 1 mM DTT, 20 ug/ml BSA, 0.5 ug poly-dIdC, 7% glycerol, no divalent metal; 0.02 uM labelled + 0.5 uM unlabelled oligonucleotide, 45 min 37 C (standard reaction); 8% native gel (TAE, 7% glycerol) at 4 C. Conditions: protein: recombinant, tags: His6 (C-terminal by name), chain copies: 2, label: 5'-32P. For orientation: Mobility shift assays separate free from complexed probe on a gel.

B1: B268i (61) wt y REPEc (structured_DNA)
DNA: GTAGGACGGATAAGGCGTTTACGCCGCATCCGGCAGTTGTACGCAGGTGCCTGATGCGACG
On to B1, for which, where the note is “hairpin with bulge”, the binding result is “binds”.

B2: B2689 mut loop (complement of loop) (structured_DNA)
DNA: GTAGGACGGATAAGGCGTAAACGCCGCATCCGGCAGTTGTACGCAGGTGCCTGATGCGACG
For the molecule B2, under “hairpin with bulge”, the binding result is “binds”.

B3: B268i (61) GTGG (structured_DNA)
DNA: GTGGGACGGATAAGGCGTTTACGCCGCATCCGGCAGTTGTACGCAGGTGCCTGATGCGACG
Turning to B3, the binding result (hairpin with bulge) is “no binding”.

B4: B268i (61) GTAC (structured_DNA)
DNA: GTACGACGGATAAGGCGTTTACGCCGCATCCGGCAGTTGTACGCAGGTGCCTGATGCGACG
With B4, under “hairpin with bulge”, the binding result is listed as “no binding”.

With GTAGGACGGATAAGCATCCGGCAGTTGTACGCAGGTGCCTGATGCGACG (structured_DNA) [B2688 del upper stem and loop], the binding result was “no binding”.
